Data as given in patent publication US20150203577A1 (Chugai, published 2015).

T1: mouse FcγRIII extracellular domain with C-terminal His tag (mouse, UniProt P08508 31-215)
T1 construct: Made on the basis of NCBI NP-034318.2; also called mFcγRIII; mFcgRIII
T1 chain: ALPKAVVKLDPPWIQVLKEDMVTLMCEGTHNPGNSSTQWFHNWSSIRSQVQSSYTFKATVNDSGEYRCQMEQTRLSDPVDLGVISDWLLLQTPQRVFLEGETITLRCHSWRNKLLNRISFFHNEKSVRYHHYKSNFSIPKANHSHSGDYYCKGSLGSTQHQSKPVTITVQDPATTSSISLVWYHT

T2: mouse FcγRII extracellular domain with C-terminal His tag (mouse, UniProt P08101 30-210)
T2 construct: Made on the basis of NCBI NP-034317.1; also called mFcγRII; mFcgRII
T2 sequence: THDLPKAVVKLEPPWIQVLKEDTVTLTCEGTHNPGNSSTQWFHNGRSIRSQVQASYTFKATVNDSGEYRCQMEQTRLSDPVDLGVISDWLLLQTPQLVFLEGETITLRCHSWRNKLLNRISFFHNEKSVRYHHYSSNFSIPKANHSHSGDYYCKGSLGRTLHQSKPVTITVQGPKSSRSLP


Experiments:
[1] = target: T1, mouse FcγRIII extracellular domain with …; test: SPR Biacore T200
Method: (§1) Each altered antibody was analyzed for its interaction with each Fcγ receptor prepared above using Biacore T100 (GE Healthcare Japan Corp.), Biacore T200 (GE Healthcare Japan Corp.), Biacore A100, or Biacore 4000. The running buffer used was HBS-EP+ (GE Healthcare Japan Corp.). The assay temperature was set to 25° C. The sensor chips used were chips prepared by immobilizing Protein L (ACTIGEN or BioVision) onto Series S Sensor Chip CM5 (GE Healthcare Japan Corp.) or Series S Sensor Chip CM4 (GE Healthcare Japan Corp.) by the amine coupling method.
(§2) In order to calculate the KD value of each altered antibody for FcγR, kinetic analysis was conducted according to the following method: first, the antibody of interest was captured onto any of these chips and allowed to interact with mFcγR diluted with a running buffer. For the obtained sensorgram, the assay results were globally fit into the 1:1 Langmuir binding model using Biacore Evaluation Software to calculate an association rate constant ka (L/mol/s) and a dissociation rate constant kd (1/s). From these values, the dissociation constant KD (mol/L) was calculated.

[2] = target: T2, mouse FcγRII extracellular domain with …; test: SPR Biacore T200
Method: as §1, §2

relative mFcγRIII-binding activity (mIgG1 = 1) [1] | relative mFcγRII-binding activity (mIgG1 = 1) [2] | Binder
0.3 | 3.5 | H237-MB512/MRAL-k0 (antibody, mouse IgG1, kappa, copies: 2 + 2) heavy: QVQLQESGPGLVKPSETLSLTCAVSGHSISHDHAWSWVRQPPGEGLEWIGFISYSGITNYNPSLQGRVTISRDNSKNTLYLQMNSLRAEDTAVYYCARSLARTTAMDYWGEGTLVTVSSAKTTPPSVYPLAPGSAAQTNSMVTLGCLVKGYFPEPVTVTWNSGSLSSGVHTFPAVLQSDLYTLSSSVTVPSSTWPSETVTCNVAHPASSTKVDKKIVPRDCGCKPCICEVYEVEMVFIFPPKPKDVLTITLTPKVTCVVVDISKDDPEVQFSWFVDDVEVHTAQTQPREEQFNSTFRSVSELPIMHQDWLNGKEFKCRVNSAAFPAPIEKTISKTKGRPKAPQVYTIPPPKEQMAKDKVSLTCMITDFFPEDITVEWQWNGQPAENYKNTQPIMDTDGSYFVYSKLNVQKSNWEAGNTFTCSVLHEGLHNHHTEKSLSHSPGK light: not shown
1.1 | 6.9 | H237-MB489/MRAL-k0 (antibody, mouse IgG1, kappa, copies: 2 + 2) heavy: QVQLQESGPGLVKPSETLSLTCAVSGHSISHDHAWSWVRQPPGEGLEWIGFISYSGITNYNPSLQGRVTISRDNSKNTLYLQMNSLRAEDTAVYYCARSLARTTAMDYWGEGTLVTVSSAKTTPPSVYPLAPGSAAQTNSMVTLGCLVKGYFPEPVTVTWNSGSLSSGVHTFPAVLQSDLYTLSSSVTVPSSTWPSETVTCNVAHPASSTKVDKKIVPRDCGCKPCICQPNEVESVFIFPPKPKDVLTITLTPKVTCVVVDISKDDPEVQFSWFVDDVEVHTAQTQPREEQFNSTFRSVSELPIMHQDWLNGKEFKCRVNSAAFPAPIEKTISKTKGRPKAPQVYTIPPPKEQMAKDKVSLTCMITDFFPEDITVEWQWNGQPAENYKNTQPIMDTDGSYFVYSKLNVQKSNWEAGNTFTCSVLHEGLHNHHTEKSLSHSPGK light: not shown
0.6 | 8.3 | H237-MB511/MRAL-k0 (antibody, mouse IgG1, kappa, copies: 2 + 2) heavy: QVQLQESGPGLVKPSETLSLTCAVSGHSISHDHAWSWVRQPPGEGLEWIGFISYSGITNYNPSLQGRVTISRDNSKNTLYLQMNSLRAEDTAVYYCARSLARTTAMDYWGEGTLVTVSSAKTTPPSVYPLAPGSAAQTNSMVTLGCLVKGYFPEPVTVTWNSGSLSSGVHTFPAVLQSDLYTLSSSVTVPSSTWPSETVTCNVAHPASSTKVDKKIVPRDCGCKPCICETYEVEMVFIFPPKPKDVLTITLTPKVTCVVVDISKDDPEVQFSWFVDDVEVHTAQTQPREEQFNSTFRSVSELPIMHQDWLNGKEFKCRVNSAAFPAPIEKTISKTKGRPKAPQVYTIPPPKEQMAKDKVSLTCMITDFFPEDITVEWQWNGQPAENYKNTQPIMDTDGSYFVYSKLNVQKSNWEAGNTFTCSVLHEGLHNHHTEKSLSHSPGK light: not shown
0.4 | 5.5 | H237-MB508/MRAL-k0 (antibody, mouse IgG1, kappa, copies: 2 + 2) heavy: QVQLQESGPGLVKPSETLSLTCAVSGHSISHDHAWSWVRQPPGEGLEWIGFISYSGITNYNPSLQGRVTISRDNSKNTLYLQMNSLRAEDTAVYYCARSLARTTAMDYWGEGTLVTVSSAKTTPPSVYPLAPGSAAQTNSMVTLGCLVKGYFPEPVTVTWNSGSLSSGVHTFPAVLQSDLYTLSSSVTVPSSTWPSETVTCNVAHPASSTKVDKKIVPRDCGCKPCICEAYEVEMVFIFPPKPKDVLTITLTPKVTCVVVDISKDDPEVQFSWFVDDVEVHTAQTQPREEQFNSTFRSVSELPIMHQDWLNGKEFKCRVNSAAFPAPIEKTISKTKGRPKAPQVYTIPPPKEQMAKDKVSLTCMITDFFPEDITVEWQWNGQPAENYKNTQPIMDTDGSYFVYSKLNVQKSNWEAGNTFTCSVLHEGLHNHHTEKSLSHSPGK light: not shown
0.6 | 10.7 | H237-MB509/MRAL-k0 (antibody, mouse IgG1, kappa, copies: 2 + 2) heavy: QVQLQESGPGLVKPSETLSLTCAVSGHSISHDHAWSWVRQPPGEGLEWIGFISYSGITNYNPSLQGRVTISRDNSKNTLYLQMNSLRAEDTAVYYCARSLARTTAMDYWGEGTLVTVSSAKTTPPSVYPLAPGSAAQTNSMVTLGCLVKGYFPEPVTVTWNSGSLSSGVHTFPAVLQSDLYTLSSSVTVPSSTWPSETVTCNVAHPASSTKVDKKIVPRDCGCKPCICEDYEVEMVFIFPPKPKDVLTITLTPKVTCVVVDISKDDPEVQFSWFVDDVEVHTAQTQPREEQFNSTFRSVSELPIMHQDWLNGKEFKCRVNSAAFPAPIEKTISKTKGRPKAPQVYTIPPPKEQMAKDKVSLTCMITDFFPEDITVEWQWNGQPAENYKNTQPIMDTDGSYFVYSKLNVQKSNWEAGNTFTCSVLHEGLHNHHTEKSLSHSPGK light: not shown
0.6 | 6.5 | H237-MB510/MRAL-k0 (antibody, mouse IgG1, kappa, copies: 2 + 2) heavy: QVQLQESGPGLVKPSETLSLTCAVSGHSISHDHAWSWVRQPPGEGLEWIGFISYSGITNYNPSLQGRVTISRDNSKNTLYLQMNSLRAEDTAVYYCARSLARTTAMDYWGEGTLVTVSSAKTTPPSVYPLAPGSAAQTNSMVTLGCLVKGYFPEPVTVTWNSGSLSSGVHTFPAVLQSDLYTLSSSVTVPSSTWPSETVTCNVAHPASSTKVDKKIVPRDCGCKPCICENYEVEMVFIFPPKPKDVLTITLTPKVTCVVVDISKDDPEVQFSWFVDDVEVHTAQTQPREEQFNSTFRSVSELPIMHQDWLNGKEFKCRVNSAAFPAPIEKTISKTKGRPKAPQVYTIPPPKEQMAKDKVSLTCMITDFFPEDITVEWQWNGQPAENYKNTQPIMDTDGSYFVYSKLNVQKSNWEAGNTFTCSVLHEGLHNHHTEKSLSHSPGK light: not shown

Further lines, the binder ahead of its results:

Binder | relative mFcγRIII-binding activity (mIgG1 = 1) [1] | relative mFcγRII-binding activity (mIgG1 = 1) [2]
H237-MB484/MRAL-k0 (antibody, mouse IgG1, kappa, copies: 2 + 2) heavy: QVQLQESGPGLVKPSETLSLTCAVSGHSISHDHAWSWVRQPPGEGLEWIGFISYSGITNYNPSLQGRVTISRDNSKNTLYLQMNSLRAEDTAVYYCARSLARTTAMDYWGEGTLVTVSSAKTTPPSVYPLAPGSAAQTNSMVTLGCLVKGYFPEPVTVTWNSGSLSSGVHTFPAVLQSDLYTLSSSVTVPSSTWPSETVTCNVAHPASSTKVDKKIVPRDCGCKPCICETYEVESVFIFPPKPKDVLTITLTPKVTCVVVDISKDDPEVQFSWFVDDVEVHTAQTQPREEQFNSTFRSVSELPIMHQDWLNGKEFKCRVNSAAFPAPIEKTISKTKGRPKAPQVYTIPPPKEQMAKDKVSLTCMITDFFPEDITVEWQWNGQPAENYKNTQPIMDTDGSYFVYSKLNVQKSNWEAGNTFTCSVLHEGLHNHHTEKSLSHSPGK light: not shown | 1.1 | 14.9
H237-MB485/MRAL-k0 (antibody, mouse IgG1, kappa, copies: 2 + 2) heavy: QVQLQESGPGLVKPSETLSLTCAVSGHSISHDHAWSWVRQPPGEGLEWIGFISYSGITNYNPSLQGRVTISRDNSKNTLYLQMNSLRAEDTAVYYCARSLARTTAMDYWGEGTLVTVSSAKTTPPSVYPLAPGSAAQTNSMVTLGCLVKGYFPEPVTVTWNSGSLSSGVHTFPAVLQSDLYTLSSSVTVPSSTWPSETVTCNVAHPASSTKVDKKIVPRDCGCKPCICEVYEVESVFIFPPKPKDVLTITLTPKVTCVVVDISKDDPEVQFSWFVDDVEVHTAQTQPREEQFNSTFRSVSELPIMHQDWLNGKEFKCRVNSAAFPAPIEKTISKTKGRPKAPQVYTIPPPKEQMAKDKVSLTCMITDFFPEDITVEWQWNGQPAENYKNTQPIMDTDGSYFVYSKLNVQKSNWEAGNTFTCSVLHEGLHNHHTEKSLSHSPGK light: not shown | 0.5 | 5
H237-MB488/MRAL-k0 (antibody, mouse IgG1, kappa, copies: 2 + 2) heavy: QVQLQESGPGLVKPSETLSLTCAVSGHSISHDHAWSWVRQPPGEGLEWIGFISYSGITNYNPSLQGRVTISRDNSKNTLYLQMNSLRAEDTAVYYCARSLARTTAMDYWGEGTLVTVSSAKTTPPSVYPLAPGSAAQTNSMVTLGCLVKGYFPEPVTVTWNSGSLSSGVHTFPAVLQSDLYTLSSSVTVPSSTWPSETVTCNVAHPASSTKVDKKIVPRDCGCKPCICEPNEVESVFIFPPKPKDVLTITLTPKVTCVVVDISKDDPEVQFSWFVDDVEVHTAQTQPREEQFNSTFRSVSELPIMHQDWLNGKEFKCRVNSAAFPAPIEKTISKTKGRPKAPQVYTIPPPKEQMAKDKVSLTCMITDFFPEDITVEWQWNGQPAENYKNTQPIMDTDGSYFVYSKLNVQKSNWEAGNTFTCSVLHEGLHNHHTEKSLSHSPGK light: not shown | 1.8 | 28.7
H237-MB487/MRAL-k0 (antibody, mouse IgG1, kappa, copies: 2 + 2) heavy: QVQLQESGPGLVKPSETLSLTCAVSGHSISHDHAWSWVRQPPGEGLEWIGFISYSGITNYNPSLQGRVTISRDNSKNTLYLQMNSLRAEDTAVYYCARSLARTTAMDYWGEGTLVTVSSAKTTPPSVYPLAPGSAAQTNSMVTLGCLVKGYFPEPVTVTWNSGSLSSGVHTFPAVLQSDLYTLSSSVTVPSSTWPSETVTCNVAHPASSTKVDKKIVPRDCGCKPCICIPAEVESVFIFPPKPKDVLTITLTPKVTCVVVDISKDDPEVQFSWFVDDVEVHTAQTQPREEQFNSTFRSVSELPIMHQDWLNGKEFKCRVNSAAFPAPIEKTISKTKGRPKAPQVYTIPPPKEQMAKDKVSLTCMITDFFPEDITVEWQWNGQPAENYKNTQPIMDTDGSYFVYSKLNVQKSNWEAGNTFTCSVLHEGLHNHHTEKSLSHSPGK light: not shown | 0.5 | 6.8
